# Experimental data published in patent publication US20240117018A1.
# Assays:
# Assay in all cases: cell-based or functional assay
# [1] = molecular target: HIV-1 Env of pseudovirus 231965.c01 (HIV-1)
# [2] = molecular target: HIV-1 Env of pseudovirus X1254_c3 (HIV-1)
# [3] = molecular target: HIV-1 Env of pseudovirus 6540.v4.c1 (HIV-1)
# [4] = molecular target: HIV-1 Env of pseudovirus 263-8 (HIV-1)
# [5] = molecular target: HIV-1 Env of pseudovirus BJOX025000.01.1 (HIV-1)
# [6] = molecular target: HIV-1 Env of pseudovirus T257-31 (HIV-1)
# [7] = molecular target: HIV-1 Env of pseudovirus T255-34 (HIV-1)
# [8] = molecular target: HIV-1 Env of pseudovirus 231966.c02 (HIV-1)
# [9] = molecular target: HIV-1 Env of pseudovirus C1080.c03 (HIV-1)
# [10] = molecular target: HIV-1 Env of pseudovirus T278-50 (HIV-1)
# [11] = molecular target: HIV-1 Env of pseudovirus 191955_A11 (HIV-1)
# [12] = molecular target: HIV-1 Env of pseudovirus 3016.v5.c45 (HIV-1)
# [13] = molecular target: HIV-1 Env of pseudovirus BJOX010000.06.2 (HIV-1)
# [14] = molecular target: HIV-1 Env of pseudovirus X2131_C1_B5 (HIV-1)
# [15] = molecular target: HIV-1 Env of pseudovirus BJOX028000.10.3 (HIV-1)
# [16] = molecular target: HIV-1 Env of pseudovirus 6952.v1.c20 (HIV-1)
# [17] = molecular target: HIV-1 Env of pseudovirus 0815.v3.c3 (HIV-1)
# [18] = molecular target: HIV-1 Env of pseudovirus 6545.v4.c1 (HIV-1)
# [19] = molecular target: HIV-1 Env of pseudovirus X2088_c9 (HIV-1)
# [20] = molecular target: HIV-1 Env of pseudovirus X1632_S2_B10 (HIV-1)
# [21] = molecular target: HIV-1 Env of pseudovirus R3265.c06 (HIV-1)
# [22] = molecular target: HIV-1 Env of pseudovirus 235-47 (HIV-1)
# [23] = molecular target: HIV-1 Env of pseudovirus 9004SS_A3_4 (HIV-1)
# [24] = molecular target: HIV-1 Env of pseudovirus 89-F1_2_25 (HIV-1)
# [25] = molecular target: HIV-1 Env of pseudovirus 6041.v3.c23 (HIV-1)
# [26] = molecular target: HIV-1 Env of pseudovirus C3347.c11 (HIV-1)
# [27] = molecular target: HIV-1 Env of pseudovirus R1166.c01 (HIV-1)
# [28] = molecular target: HIV-1 Env of pseudovirus R2184.c04 (HIV-1)
# [29] = molecular target: HIV-1 Env of pseudovirus A07412M1.vrc12 (HIV-1)
# [30] = molecular target: HIV-1 Env of pseudovirus P0402_c2_11 (HIV-1)
# [31] = molecular target: HIV-1 Env of pseudovirus 6811.v7.c18 (HIV-1)
# [32] = molecular target: HIV-1 Env of pseudovirus 211-9 (HIV-1)
# [33] = molecular target: HIV-1 Env of pseudovirus BJOX009000.02.4 (HIV-1)
# [34] = molecular target: HIV-1 Env of pseudovirus BJOX015000.11.5 (HIV-1)
# [35] = molecular target: HIV-1 Env of pseudovirus X1193_c1 (HIV-1)
# [36] = molecular target: HIV-1 Env of pseudovirus 3817.v2.c59 (HIV-1)
substance,measurement,setting,value
PGT128 (antibody),IC50 (Titer in TZM.bl cells),[1],> 50 µg/mL
same,IC80 (Titer in TZM.bl cells),[1],> 50 µg/mL
same,IC50 (Titer in TZM.bl cells),[2],> 50 µg/mL
same,IC80 (Titer in TZM.bl cells),[2],> 50 µg/mL
same,IC50 (Titer in TZM.bl cells),[3],11.8 µg/mL
same,IC80 (Titer in TZM.bl cells),[3],> 50 µg/mL
same,neutralization IC50,[4],0.342 µg/mL
same,neutralization IC80,[4],3.3 µg/mL
same,IC50 (Titer in TZM.bl cells),[5],> 50 µg/mL
same,IC80 (Titer in TZM.bl cells),[5],> 50 µg/mL
same,neutralization IC50,[6],> 50 µg/mL
same,neutralization IC80,[6],> 50 µg/mL
same,IC50 (Titer in TZM.bl cells),[7],> 50 µg/mL
same,IC80 (Titer in TZM.bl cells),[7],> 50 µg/mL
same,IC50 (Titer in TZM.bl cells),[8],3.2 µg/mL
same,IC80 (Titer in TZM.bl cells),[8],> 50 µg/mL
same,IC50 (Titer in TZM.bl cells),[9],0.283 µg/mL
same,IC80 (Titer in TZM.bl cells),[9],2.06 µg/mL
same,IC50 (Titer in TZM.bl cells),[10],0.031 µg/mL
same,IC80 (Titer in TZM.bl cells),[10],0.089 µg/mL
same,neutralization IC50,[11],14.2 µg/mL
same,neutralization IC80,[11],> 50 µg/mL
same,IC50 (Titer in TZM.bl cells),[12],> 50 µg/mL
same,IC80 (Titer in TZM.bl cells),[12],> 50 µg/mL
same,IC50 (Titer in TZM.bl cells),[13],4.82 µg/mL
same,IC80 (Titer in TZM.bl cells),[13],> 50 µg/mL
same,IC50 (Titer in TZM.bl cells),[14],> 50 µg/mL
same,IC80 (Titer in TZM.bl cells),[14],> 50 µg/mL
same,IC50 (Titer in TZM.bl cells),[15],0.024 µg/mL
same,IC80 (Titer in TZM.bl cells),[15],0.07 µg/mL
same,IC50 (Titer in TZM.bl cells),[16],> 50 µg/mL
same,IC80 (Titer in TZM.bl cells),[16],> 50 µg/mL
same,IC50 (Titer in TZM.bl cells),[17],0.03 µg/mL
same,IC80 (Titer in TZM.bl cells),[17],0.137 µg/mL
same,IC50 (Titer in TZM.bl cells),[18],> 50 µg/mL
same,IC80 (Titer in TZM.bl cells),[18],> 50 µg/mL
same,IC50 (Titer in TZM.bl cells),[19],> 50 µg/mL
same,IC80 (Titer in TZM.bl cells),[19],> 50 µg/mL
same,IC50 (Titer in TZM.bl cells),[20],> 50 µg/mL
same,IC80 (Titer in TZM.bl cells),[20],> 50 µg/mL
same,IC50 (Titer in TZM.bl cells),[21],> 50 µg/mL
same,IC80 (Titer in TZM.bl cells),[21],> 50 µg/mL
same,IC50 (Titer in TZM.bl cells),[22],> 50 µg/mL
same,IC80 (Titer in TZM.bl cells),[22],> 50 µg/mL
same,neutralization IC50,[23],0.002 µg/mL
same,neutralization IC80,[23],0.01 µg/mL
same,IC50 (Titer in TZM.bl cells),[24],> 50 µg/mL
same,IC80 (Titer in TZM.bl cells),[24],> 50 µg/mL
same,IC50 (Titer in TZM.bl cells),[25],> 50 µg/mL
same,IC80 (Titer in TZM.bl cells),[25],> 50 µg/mL
same,IC50 (Titer in TZM.bl cells),[26],0.001 µg/mL
same,IC80 (Titer in TZM.bl cells),[26],0.007 µg/mL
same,IC50 (Titer in TZM.bl cells),[27],> 50 µg/mL
same,IC80 (Titer in TZM.bl cells),[27],> 50 µg/mL
same,IC50 (Titer in TZM.bl cells),[28],20.1 µg/mL
same,IC80 (Titer in TZM.bl cells),[28],> 50 µg/mL
same,IC50 (Titer in TZM.bl cells),[29],> 50 µg/mL
same,IC80 (Titer in TZM.bl cells),[29],> 50 µg/mL
same,IC50 (Titer in TZM.bl cells),[30],0.007 µg/mL
same,IC80 (Titer in TZM.bl cells),[30],0.02 µg/mL
same,IC50 (Titer in TZM.bl cells),[31],0.003 µg/mL
same,IC80 (Titer in TZM.bl cells),[31],0.05 µg/mL
same,IC50 (Titer in TZM.bl cells),[32],0.062 µg/mL
same,IC80 (Titer in TZM.bl cells),[32],0.215 µg/mL
same,IC50 (Titer in TZM.bl cells),[33],< 0.001 µg/mL
same,IC80 (Titer in TZM.bl cells),[33],0.005 µg/mL
same,IC50 (Titer in TZM.bl cells),[34],0.001 µg/mL
same,IC80 (Titer in TZM.bl cells),[34],0.011 µg/mL
same,IC50 (Titer in TZM.bl cells),[35],> 50 µg/mL
same,IC80 (Titer in TZM.bl cells),[35],> 50 µg/mL
same,IC50 (Titer in TZM.bl cells),[36],0.003 µg/mL
same,IC80 (Titer in TZM.bl cells),[36],0.023 µg/mL
N49P7 (antibody),"IC50 (neutralisation, TZM.bl cells)",[1],0.054 µg/mL
same,"IC80 (neutralisation, TZM.bl cells)",[1],0.193 µg/mL
same,MPI,[1],100
same,IC50,[2],2.97 µg/mL
same,IC80,[2],13.6 µg/mL
same,MPI,[2],100
same,"IC50 (neutralisation, TZM.bl cells)",[3],11.7 µg/mL
same,"IC80 (neutralisation, TZM.bl cells)",[3],33.2 µg/mL
same,MPI,[3],92
same,IC50,[4],0.056 µg/mL
same,IC80,[4],0.201 µg/mL
same,MPI,[4],100
same,IC50,[5],0.038 µg/mL
same,IC80,[5],0.236 µg/mL
same,MPI,[5],100
same,IC50,[6],0.158 µg/mL
same,IC80,[6],0.619 µg/mL
same,MPI,[6],100
same,IC50,[7],0.053 µg/mL
same,IC80,[7],0.262 µg/mL
same,MPI,[7],100
same,"IC50 (neutralisation, TZM.bl cells)",[8],0.102 µg/mL
same,"IC80 (neutralisation, TZM.bl cells)",[8],0.43 µg/mL
same,MPI,[8],100
same,IC50,[9],0.114 µg/mL
same,IC80,[9],0.765 µg/mL
same,MPI,[9],100
same,IC50,[10],22.3 µg/mL
same,IC80,[10],> 50 µg/mL
same,MPI,[10],75
same,IC50,[11],1.81 µg/mL
same,IC80,[11],8.87 µg/mL
same,MPI,[11],99
same,"IC50 (neutralisation, TZM.bl cells)",[12],0.221 µg/mL
same,"IC80 (neutralisation, TZM.bl cells)",[12],1.04 µg/mL
same,MPI,[12],100
same,IC50,[13],0.085 µg/mL
same,IC80,[13],0.592 µg/mL
same,MPI,[13],100
same,"IC50 (neutralisation, TZM.bl cells)",[14],0.081 µg/mL
same,"IC80 (neutralisation, TZM.bl cells)",[14],0.273 µg/mL
same,MPI,[14],100
same,IC50,[15],0.02 µg/mL
same,IC80,[15],0.123 µg/mL
same,MPI,[15],100
same,"IC50 (neutralisation, TZM.bl cells)",[16],18.4 µg/mL
same,"IC80 (neutralisation, TZM.bl cells)",[16],38.9 µg/mL
same,MPI,[16],91
same,"IC50 (neutralisation, TZM.bl cells)",[17],0.016 µg/mL
same,"IC80 (neutralisation, TZM.bl cells)",[17],0.053 µg/mL
same,MPI,[17],100
same,"IC50 (neutralisation, TZM.bl cells)",[18],2 µg/mL
same,"IC80 (neutralisation, TZM.bl cells)",[18],14.7 µg/mL
same,MPI,[18],96
same,IC50,[19],0.116 µg/mL
same,IC80,[19],0.338 µg/mL
same,MPI,[19],100
same,"IC50 (neutralisation, TZM.bl cells)",[20],12 µg/mL
same,"IC80 (neutralisation, TZM.bl cells)",[20],40.4 µg/mL
same,MPI,[20],85
same,IC50,[21],0.048 µg/mL
same,IC80,[21],0.282 µg/mL
same,MPI,[21],100
same,IC50,[22],0.045 µg/mL
same,IC80,[22],0.3 µg/mL
same,MPI,[22],99
same,IC50,[23],0.125 µg/mL
same,IC80,[23],0.39 µg/mL
same,MPI,[23],100
same,"IC50 (neutralisation, TZM.bl cells)",[24],21.6 µg/mL
same,"IC80 (neutralisation, TZM.bl cells)",[24],> 50 µg/mL
same,MPI,[24],80
same,"IC50 (neutralisation, TZM.bl cells)",[25],0.047 µg/mL
same,"IC80 (neutralisation, TZM.bl cells)",[25],0.222 µg/mL
same,MPI,[25],100
same,IC50,[26],0.024 µg/mL
same,IC80,[26],0.067 µg/mL
same,MPI,[26],100
same,IC50,[27],0.092 µg/mL
same,IC80,[27],0.313 µg/mL
same,MPI,[27],100
same,IC50,[28],0.011 µg/mL
same,IC80,[28],0.031 µg/mL
same,MPI,[28],100
same,"IC50 (neutralisation, TZM.bl cells)",[29],0.108 µg/mL
same,"IC80 (neutralisation, TZM.bl cells)",[29],0.645 µg/mL
same,MPI,[29],100
same,IC50,[30],0.014 µg/mL
same,IC80,[30],0.061 µg/mL
same,MPI,[30],100
same,"IC50 (neutralisation, TZM.bl cells)",[31],0.229 µg/mL
same,"IC80 (neutralisation, TZM.bl cells)",[31],0.992 µg/mL
same,MPI,[31],100
same,IC50,[32],0.22 µg/mL
same,IC80,[32],0.767 µg/mL
same,MPI,[32],100
same,IC50,[33],0.113 µg/mL
same,IC80,[33],0.506 µg/mL
same,MPI,[33],100
same,IC50,[34],0.036 µg/mL
same,IC80,[34],0.157 µg/mL
same,MPI,[34],100
same,IC50,[35],0.016 µg/mL
same,IC80,[35],0.06 µg/mL
same,MPI,[35],100
same,"IC50 (neutralisation, TZM.bl cells)",[36],0.716 µg/mL
same,"IC80 (neutralisation, TZM.bl cells)",[36],3.73 µg/mL
same,MPI,[36],99
